The supplement of paper PMC11908140

B1: library; numbered along this chain (parent)
chain: MRKPRAAVGSGHRKQAASQEGRQKHAKNNSQAKPSACDGLARQPEEVVLQASVSSYHLFRDVAEVTAFRGSLLSWYDQEKRDLPWRRRAEDEMDLDRRAYAVWVSEVMLQQTQVATVINYYTGWMQKWPTLQDLASASLEEVNQLWAGLGYYSRGRRLQEGARKVVEELGGHMPRTAETLQQLLPGVGRYTAGAIASIAFGQATGVVDGNVARVLCRVRAIGADPSSTLVSQQLWGLAQQLVDPARPGDFNQAAMELGATVCTPQRPLCSQCPVESLCRARQRVEQEQLLASGSLSGSPDVEECAPNTGQCHLCLPPSEPWDQTLGVVNFPRKASRKPPREESSATCVLEQPGALGAQILLVQRPNSGLLAGLWEFPSVTWEPSEQLQRKALLQELQRWAGPLPATHLRHLGEVVHTFSHIKLTYQVYGLALEGQTPVTTVPPGARWLTQEEFHTAAVSTAMKKVFRVYQGQQPGTCMGSKRSQVSSPCSRKKPRMGQQVLDNFFRSHISTDAHSLNSAAQ

Variants of: B1
Assay: 8OG:A repair function score (normalized; synonymous = 0, nonsense = -1) (normalized log-likelihood score); higher = more repair activity (WT-like)
Settings: with 8OG:A DNA repair reporter (GFP) in HEK-293 MUTYH KO cells
Outline: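 GFP+ (repair) and GFP− bins of viable mCherry+ cells were collected at 72 h from MUTYH knockout HEK-293 cells bearing lentiviral MUTYH cDNA NNN codon-scan libraries in 10 pg/ml doxycycline, co-transfected with an 8OG:A GFP repair reporter and mCherry. Tile amplicons were sequenced, and per-tile Rosace fitness scores were normalized to a repair function score anchored on synonymous and nonsense distributions. Synonymous medians were set to 0 and nonsense to -1, with variants under 300 counts per million at the start removed.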
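Further: cells sorted at 72 h after reporter transfection.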

Variant | 8OG:A repair function score
L315D | -0.206
S378F | -0.0771
A162T | -0.155
Y120D | -0.428
Y120R | -0.0662
L169Y | -0.104
L169R | -0.105
L396E | -1.07
A135E | -0.996
L411N | -0.503
S197H | -1.22
V415M | 0.0821
V415T | -0.106
A196D | -0.616
G497P | -0.0806
W124C | -0.794
Q388F | -0.281
Q233H | 0.461
Q233K | -0.089
Q233I | 0.198
F505I | 0.0133
P365A | -0.0399
T204N | -0.117
P247C | -0.799

Variant | 8OG:A repair function score
S367K | 0.111
R87L | -0.0416
A192M | -0.964
T260W | -0.207
G372R | -0.304
G372M | -0.639
D94N | -0.0146
D94L | -0.105
L501I | -0.0198
L501D | 0.00991
L501F | 0.0198
H514V | 0.0053
H514D | -0.0358
E342F | -0.0595
A400G | -0.0159
A400I | -0.319
A400D | -0.752
P488K | 0.0286
C489P | -0.00598
C489E | 0.0219
L257K | -1.22
G429E | -0.296
W381F | -0.181
S480D | 0.0166

Variant | 8OG:A repair function score
P264N | -0.0423
V114N | -0.367
C216V | -0.649
I359Q | -0.322
G171F | -0.571
N251D | -0.947
N251A | -0.847
V301N | -0.386
D322I | 0.0378
E395H | -0.214
E395G | -0.277
A177F | -0.273
Y151H | -0.509
Y151K | -0.808
Y121I | -0.562
T191Y | -1.07
Q240H | -0.94
D61W | -0.127
D61V | -0.137
S486V | -0.00598
Y469F | -0.0628
G258E | -1.27
L393P | -0.792
L393F | -0.244

Variant | 8OG:A repair function score
D512I | -0.0146
D512R | -7.7e-05
H416C | -0.483
V102H | -2.8
Q265E | -0.243
S270G | -0.0285
S270V | -0.0277
G193F | -0.465
G193E | -0.722
S384E | 0.0681
H454Y | -0.087
V261N | -0.379
M496V | -0.0328
P273A | -0.171
T228I | -0.152
G475S | -0.016
R81Y | -0.359
V230P | -0.409
S459R | -1.13
S227P | -0.658
S227A | -0.0215
R175Q | 0.0309
V458H | -0.592
L180Q | -0.655

Variant | 8OG:A repair function score
L180P | -1.03
L180I | -0.119
C278R | -1.27
H508L | -0.0429
A36L | -0.0486
A203P | 0.109
A203M | -0.0505
A203V | 0.0414
N119V | 0.0134
L289F | -0.00169
L49I | -0.0224
P317L | -0.0676
T476V | -0.0294
L355R | -0.00513
R389Y | -0.0127
E45Y | 0.0286
R213I | -0.997
M462G | -0.215
R219T | -0.638
T440F | 0.0139
P339E | -0.374
P320H | 0.0683
A334P | -0.147
A41G | -0.0656

Variant | 8OG:A repair function score
L268S | -0.00947
W75E | -1.57
V328E | -0.157
Y76L | -1.17
R157D | -0.365
A99N | -1.45
A99V | -0.708
A99D | -3
S231K | 0.154
S231A | -0.0555
R86S | -1.03
R86L | -0.926
V165E | -1.11
T112H | -0.634
L73F | -0.261
W447R | -0.794
D96C | -0.291
S294M | -0.0115
P185N | -0.12
P185T | -0.242
Q323C | -0.0398
E452A | -0.387
E452G | -0.228
E92H | -0.0814

Variant | 8OG:A repair function score
T460H | -0.38
T460W | -0.305
F376H | -0.879
A431L | 0.0682
A431G | -0.211
G356S | -0.118
L72N | -2.41
L72P | -1.34
G479I | -0.00859
I221E | -0.989
I118L | -0.0284
I118S | -0.0993
E167Q | 0.141
V48S | -0.0148
L295I | 0.00398
L295K | -0.0388
D208M | -0.974
V441Q | -0.259
V441M | 0.176
V441L | -0.0169
N307F | -0.00176
N307P | -0.0382
N307V | 0.0207
